{
  "source": "IntAct's records for PubMed 31515488",
  "parents": {"B1": {"name": "Zinc finger protein Aiolos (Homo sapiens), Q9UKT9 (parent)", "chain": "MEDIQTNAELKSTQEQSVPAESAAVLNDYSLTKSHEMENVDSGEGPANEDEDIGDDSMKVKDEYSERDENVLKSEPMGNAEEPEIPYSYSREYNEYENIKLERHVVSFDSSRPTSGKMNCDVCGLSCISFNVLMVHKRSHTGERPFQCNQCGASFTQKGNLLRHIKLHTGEKPFKCHLCNYACQRRDALTGHLRTHSVEKPYKCEFCGRSYKQRSSLEEHKERCRTFLQSTDPGDTASAEARHIKAEMGSERALVLDRLASNVAKRKSSMPQKFIGEKRHCFDVNYNSSYMYEKESELIQTRMMDQAINNAISYLGAEALRPLVQTPPAPTSEMVPVISSMYPIALTRAEMSNGAPQELEKKSIHLPEKSVPSERGLSPNNSGHDSTDTDSNHEERQNHIYQQNHMVLSRARNGMPLLKEVPRSYELLKPPPICPRDSVKVINKEGEVMDVYRCDHCRVLFLDYVMFTIHMGCHGFRDPFECNMCGYRSHDRYEFSSHIARGEHRALLK", "partner": "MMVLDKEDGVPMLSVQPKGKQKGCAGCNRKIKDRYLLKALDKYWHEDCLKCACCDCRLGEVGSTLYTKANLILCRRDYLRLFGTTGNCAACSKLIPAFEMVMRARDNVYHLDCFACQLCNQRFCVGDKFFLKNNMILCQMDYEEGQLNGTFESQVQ"}, "B2": {"name": "Chorion-specific transcription factor GCMb (Homo sapiens), O75603 (parent)", "chain": "MPAAAVQEAVGVCSYGMQLSWDINDPQMPQELALFDQFREWPDGYVRFIYSSDEKKAQRHLSGWAMRNTNNHNGHILKKSCLGVVVCTQACTLPDGSRLQLRPAICDKARLKQQKKACPNCHSALELIPCRGHSGYPVTNFWRLDGNAIFFQAKGVHDHPRPESKSETEARRSAIKRQMASFYQPQKKRIRESEAEENQDSSGHFSNIPPLENPEDFDIVTETSFPIPGQPCPSFPKSDVYKATCDLATFQGDKMPPFQKYSSPRIYLPRPPCSYELANPGYTNSSPYPTLYKDSTSIPNDTDWVHLNTLQCNVNSYSSYERSFDFTNKQHGWKPALGKPSLVERTNHGQFQAMATRPYYNPELPCRYLTTPPPGAPALQTVITTTTKVSYQAYQPPAMKYSDSVREVKSLSSCNYAPEDTGMSVYPEPWGPPVTVTRAASPSGPPPMKIAGDCRAIRPTVAIPHEPVSSRTDEAETWDVCLSGLGSAVSYSDRVGPFFTYNNEDF", "partner": "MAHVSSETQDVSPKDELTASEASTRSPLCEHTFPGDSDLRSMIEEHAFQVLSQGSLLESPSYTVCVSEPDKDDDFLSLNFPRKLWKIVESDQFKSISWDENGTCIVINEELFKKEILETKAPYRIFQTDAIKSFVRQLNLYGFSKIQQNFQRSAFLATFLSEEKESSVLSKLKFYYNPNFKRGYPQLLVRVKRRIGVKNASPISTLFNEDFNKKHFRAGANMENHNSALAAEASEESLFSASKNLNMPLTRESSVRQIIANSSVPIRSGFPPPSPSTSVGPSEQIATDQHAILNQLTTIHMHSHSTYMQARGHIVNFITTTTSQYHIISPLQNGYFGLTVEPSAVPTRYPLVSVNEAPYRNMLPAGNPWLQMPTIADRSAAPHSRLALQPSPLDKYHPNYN"}, "B3": {"name": "Mothers against decapentaplegic homolog 4 (Homo sapiens), Q13485 (parent)", "chain": "MDNMSITNTPTSNDACLSIVHSLMCHRQGGESETFAKRAIESLVKKLKEKKDELDSLITAITTNGAHPSKCVTIQRTLDGRLQVAGRKGFPHVIYARLWRWPDLHKNELKHVKYCQYAFDLKCDSVCVNPYHYERVVSPGIDLSGLTLQSNAPSSMMVKDEYVHDFEGQPSLSTEGHSIQTIQHPPSNRASTETYSTPALLAPSESNATSTANFPNIPVASTSQPASILGGSHSEGLLQIASGPQPGQQQNGFTGQPATYHHNSTTTWTGSRTAPYTPNLPHHQNGHLQHHPPMPPHPGHYWPVHNELAFQPPISNHPAPEYWCSIAYFEMDVQVGETFKVPSSCPIVTVDGYVDPSGGDRFCLGQLSNVHRTEAIERARLHIGKGVQLECKGEGDVWVRCLSDHAVFVQSYYLDREAGRAPGDAVHKIYPSAYIKVFDLRQCHRQMQQQAATAQAAAAAQAAAVAGNIPGPGSVGGIAPAISLSAAAGIGVDDLRRLCILRMSFVKGWGPDYPRQSIKETPCWIEIHLHRALQLLDEVLHTMPIADPQPLD", "partner": "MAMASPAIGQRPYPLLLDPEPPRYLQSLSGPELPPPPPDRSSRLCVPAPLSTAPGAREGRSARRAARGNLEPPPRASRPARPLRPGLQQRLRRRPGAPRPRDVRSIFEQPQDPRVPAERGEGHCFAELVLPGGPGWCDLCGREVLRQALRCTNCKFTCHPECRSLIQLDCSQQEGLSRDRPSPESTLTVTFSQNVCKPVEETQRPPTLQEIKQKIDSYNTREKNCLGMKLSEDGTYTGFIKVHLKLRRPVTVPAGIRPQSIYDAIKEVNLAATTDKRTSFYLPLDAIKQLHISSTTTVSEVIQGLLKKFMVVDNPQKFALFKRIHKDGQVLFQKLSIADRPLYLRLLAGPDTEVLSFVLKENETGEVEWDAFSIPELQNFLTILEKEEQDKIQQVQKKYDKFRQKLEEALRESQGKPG"}, "B4": {"name": "Modulator of apoptosis 1 (Homo sapiens), Q96BY2 (parent)", "chain": "MTLRLLEDWCRGMDMNPRKALLIAGISQSCSVAEIEEALQAGLAPLGEYRLLGRMFRRDENRKVALVGLTAETSHALVPKEIPGKGGIWRVIFKPPDPDNTFLSRLNEFLAGEGMTVGELSRALGHENGSLDPEQGMIPEMWAPMLAQALEALQPALQCLKYKKLRVFSGRESPEPGEEEFGRWMFHTTQMIKAWQVPDVEKRRRLLESLRGPALDVIRVLKINNPLITVDECLQALEEVFGVTDNPRELQVKYLTTYQKDEEKLSAYVLRLEPLLQKLVQRGAIERDAVNQARLDQVIAGAVHKTIRRELNLPEDGPAPGFLQLLVLIKDYEAAEEEEALLQAILEGNFT", "partner": "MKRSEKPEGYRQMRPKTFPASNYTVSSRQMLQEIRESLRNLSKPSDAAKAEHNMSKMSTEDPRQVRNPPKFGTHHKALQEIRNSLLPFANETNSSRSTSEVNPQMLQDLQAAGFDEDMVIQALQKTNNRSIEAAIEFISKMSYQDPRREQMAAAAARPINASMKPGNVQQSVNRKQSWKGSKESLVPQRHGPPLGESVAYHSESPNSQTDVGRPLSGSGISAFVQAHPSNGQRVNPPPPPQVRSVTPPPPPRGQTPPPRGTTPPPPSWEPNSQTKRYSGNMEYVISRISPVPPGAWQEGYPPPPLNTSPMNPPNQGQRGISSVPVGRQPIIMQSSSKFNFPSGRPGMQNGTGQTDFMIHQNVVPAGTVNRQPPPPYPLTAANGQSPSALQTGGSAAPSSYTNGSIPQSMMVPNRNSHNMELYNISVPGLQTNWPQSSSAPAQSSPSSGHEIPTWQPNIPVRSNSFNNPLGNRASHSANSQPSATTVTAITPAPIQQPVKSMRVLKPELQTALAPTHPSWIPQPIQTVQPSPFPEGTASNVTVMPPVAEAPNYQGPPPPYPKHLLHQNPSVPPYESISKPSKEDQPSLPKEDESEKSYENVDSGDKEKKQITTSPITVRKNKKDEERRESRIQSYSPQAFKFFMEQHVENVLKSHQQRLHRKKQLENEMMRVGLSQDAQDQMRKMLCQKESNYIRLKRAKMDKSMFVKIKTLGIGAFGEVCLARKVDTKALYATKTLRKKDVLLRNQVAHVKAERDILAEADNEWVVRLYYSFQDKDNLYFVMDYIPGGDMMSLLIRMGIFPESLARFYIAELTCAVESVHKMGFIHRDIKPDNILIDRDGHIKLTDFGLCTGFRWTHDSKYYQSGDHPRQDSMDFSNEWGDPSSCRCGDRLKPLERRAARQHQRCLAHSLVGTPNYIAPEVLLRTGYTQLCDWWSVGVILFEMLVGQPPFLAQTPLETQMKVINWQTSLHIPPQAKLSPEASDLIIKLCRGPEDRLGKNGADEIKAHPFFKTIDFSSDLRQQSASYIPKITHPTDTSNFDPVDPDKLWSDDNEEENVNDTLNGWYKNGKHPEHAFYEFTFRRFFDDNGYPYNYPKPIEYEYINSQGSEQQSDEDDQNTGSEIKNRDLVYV"}},
  "data": [
    {"variants_of": "B1", "conditions": "with rbtn1_human LMO1, P25800", "values": [
      {"variant": "A24V", "effect of a mutation on the interaction": "with no effect"},
      {"variant": "N119D", "effect of a mutation on the interaction": "with no effect"}
    ]},
    {"variants_of": "B2", "conditions": "with hsfy1_human HSFY1, Q96LI6", "values": [
      {"variant": "D53N", "effect of a mutation on the interaction": "with no effect"}
    ]},
    {"variants_of": "B3", "conditions": "with rasf5_human RASSF5, Q8WWW0", "values": [
      {"variant": "N13S", "effect of a mutation on the interaction": "with no effect"},
      {"variant": "C324R", "effect of a mutation on the interaction": "disrupting interaction strength"},
      {"variant": "E330K", "effect of a mutation on the interaction": "with no effect"},
      {"variant": "V350D", "effect of a mutation on the interaction": "disrupting interaction strength"},
      {"variant": "G352R", "effect of a mutation on the interaction": "with no effect"},
      {"variant": "Y353S", "effect of a mutation on the interaction": "with no effect"},
      {"variant": "R361C", "effect of a mutation on the interaction": "with no effect"},
      {"variant": "L533R", "effect of a mutation on the interaction": "with no effect"}
    ]},
    {"variants_of": "B4", "conditions": "with lats1_human LATS1, O95835", "values": [
      {"variant": "R57K", "effect of a mutation on the interaction": "disrupting interaction strength"}
    ]}
  ]
}
